Measurements published in PMC12090727, “Cell binding, uptake, and infection of influenza A virus using recombinant antibody-based receptors” (Journal of Virology, 2025).

Target: T1, HA-hFc probe: H1N1 A/California/04/2009 HA ectodomain fused to human IgG1 Fc (Influenza A virus A/California/04/2009 …, UniProt C3W5S1)
T1 construct: also called HA-probe; HA-human Fc probe; source: High Five insect cells (recombinant baculovirus), purified (HiTrap Protein G); not shown: Fc (human IgG1), C-terminal, kept
Experiment: flow cytometry on cells
Conditions: one partner purified

B1: fTfR-5J8 (Flag+) mutant D100bL (scFv, V domains shown)
VH: EVQLVESGPGLVKPSDILSLTCAVSGYSISSNYYWGWIRQPPGKGLEWIGSIYHSGSTYYKPSLESRLGISVDTSKNQFSLKLSFVSAADTAVYYCARHVRSGYPLTAYYFDKWGQGTLVTVSS
VL: SYVLTQPPSVSVAPGETARISCGGNNIGTKVLHWYQQTPGQAPVLVVYDDSDRPSGIPERFSGSNSGNTATLTISRVEVGDEADYYCQVWDISTDQAVFGGGTKLTVL
notes: also called D100bLeu
binding result: binds
